According to the supplement of paper PMC9112550, “Optimization of the antimicrobial peptide Bac7 by deep mutational scanning” (BMC Biology, 2022):

Test system: Escherichia coli TOP10
Assay: shrunken log2 fold change of peptide-encoding DNA abundance (4.5 h post-induction vs induction); higher = less antimicrobial activity (less host growth inhibition)
Details: time post-induction: 4.5 h; library: site-saturation at positions 5, 18, 19, 20
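Note: peptides expressed intracellularly from a pBAD plasmid library in pooled LB shake-flask culture, induced with 0.3% L-arabinose, DNA abundance read by NGS, three biological replicates, DESeq2 with apeglm shrinkage.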

Sequence | shrunken log2 fold change
RRIRQRPPRLPRPRPRPVKNPRP | 0.142
RRIRLRPPRLPRPRPRPKDHPRP | -0.123
RRIRHRPPRLPRPRPRPMPSPRP | 0.0183
RRIRTRPPRLPRPRPRPHFGPRP | -0.00836
RRIRVRPPRLPRPRPRPKWVPRP | 0.0874
RRIRVRPPRLPRPRPRPQSKPRP | -0.172
RRIRKRPPRLPRPRPRPYATPRP | 0.0656
RRIRRRPPRLPRPRPRPTRPPRP | 1.02
RRIRHRPPRLPRPRPRPSSMPRP | -0.474
RRIRTRPPRLPRPRPRPMAEPRP | 0.117
RRIRFRPPRLPRPRPRPQTLPRP | -0.399
RRIRWRPPRLPRPRPRPYFQPRP | 1.83
RRIRYRPPRLPRPRPRPVEAPRP | -0.35
RRIRDRPPRLPRPRPRPNWLPRP | 0.0018
RRIRCRPPRLPRPRPRPEREPRP | 0.108
RRIRERPPRLPRPRPRPPFGPRP | 0.577
RRIRDRPPRLPRPRPRPEKYPRP | 0.0312
RRIRCRPPRLPRPRPRPGLAPRP | 0.544
RRIRHRPPRLPRPRPRPAMGPRP | -0.336
RRIRCRPPRLPRPRPRPNFNPRP | -0.372
RRIRERPPRLPRPRPRPMWPPRP | 0.186
RRIRERPPRLPRPRPRPEFKPRP | 0.114
RRIRGRPPRLPRPRPRPPMRPRP | 1.39
RRIRQRPPRLPRPRPRPRGSPRP | 0.0908
RRIRLRPPRLPRPRPRPPFTPRP | 0.11

Sequence | shrunken log2 fold change
RRIRIRPPRLPRPRPRPRSDPRP | -0.284
RRIRKRPPRLPRPRPRPVMGPRP | 0.155
RRIRSRPPRLPRPRPRPAFKPRP | -0.333
RRIRKRPPRLPRPRPRPITWPRP | 0.0399
RRIRYRPPRLPRPRPRPKDYPRP | -0.787
RRIRMRPPRLPRPRPRPTMQPRP | 0.566
RRIRERPPRLPRPRPRPDCIPRP | 0.0113
RRIRHRPPRLPRPRPRPHYRPRP | -0.0219
RRIRRRPPRLPRPRPRPPARPRP | 0.762
RRIRSRPPRLPRPRPRPNCIPRP | -0.416
RRIRDRPPRLPRPRPRPKKTPRP | -0.0142
RRIRIRPPRLPRPRPRPRLGPRP | 0.0473
RRIRFRPPRLPRPRPRPSRPPRP | 0.616
RRIRYRPPRLPRPRPRPSGQPRP | -0.000925
RRIRIRPPRLPRPRPRPLTQPRP | -0.648
RRIRPRPPRLPRPRPRPYRFPRP | -0.261
RRIRARPPRLPRPRPRPMNNPRP | -0.186
RRIRCRPPRLPRPRPRPYHYPRP | -0.364
RRIRKRPPRLPRPRPRPNNAPRP | 0.243
RRIRLRPPRLPRPRPRPLNTPRP | -0.454
RRIRYRPPRLPRPRPRPWPKPRP | 0.203
RRIRIRPPRLPRPRPRPNFIPRP | -0.327
RRIRPRPPRLPRPRPRPQDEPRP | 0.0996
RRIRERPPRLPRPRPRPFENPRP | -0.01
RRIRQRPPRLPRPRPRPVHHPRP | 0.04

Sequence | shrunken log2 fold change
RRIRCRPPRLPRPRPRPQCMPRP | -0.833
RRIRQRPPRLPRPRPRPYLDPRP | -0.286
RRIRIRPPRLPRPRPRPYFWPRP | -0.388
RRIRLRPPRLPRPRPRPIVMPRP | -0.618
RRIRHRPPRLPRPRPRPKSWPRP | 0.26
RRIRGRPPRLPRPRPRPDHTPRP | 0.0269
RRIRPRPPRLPRPRPRPRFTPRP | 0.116
RRIRCRPPRLPRPRPRPEAVPRP | 0.383
RRIRIRPPRLPRPRPRPPEKPRP | -0.0181
RRIRHRPPRLPRPRPRPTTQPRP | -0.0335
RRIRSRPPRLPRPRPRPCISPRP | -0.0391
RRIRRRPPRLPRPRPRPFTVPRP | -0.118
RRIRQRPPRLPRPRPRPNYRPRP | 0.0444
RRIRNRPPRLPRPRPRPNDDPRP | 0.0813
RRIRYRPPRLPRPRPRPYSPPRP | -0.0311
RRIRPRPPRLPRPRPRPRCYPRP | 0.0458
RRIRTRPPRLPRPRPRPNLNPRP | -0.55
RRIRKRPPRLPRPRPRPIHKPRP | -0.211
RRIRNRPPRLPRPRPRPWQWPRP | 0.144
RRIRYRPPRLPRPRPRPWMFPRP | -0.273
RRIRCRPPRLPRPRPRPWSWPRP | 0.0159
RRIRMRPPRLPRPRPRPYIFPRP | -0.265
RRIRMRPPRLPRPRPRPCPVPRP | 0.0171
RRIRYRPPRLPRPRPRPFDHPRP | -0.0332
RRIRCRPPRLPRPRPRPVTLPRP | -0.34

Sequence | shrunken log2 fold change
RRIRWRPPRLPRPRPRPSMGPRP | 0.033
RRIRLRPPRLPRPRPRPFCTPRP | -0.105
RRIRDRPPRLPRPRPRPFFEPRP | 0.219
RRIRHRPPRLPRPRPRPYKKPRP | -0.0963
RRIRVRPPRLPRPRPRPGNTPRP | -0.113
RRIRSRPPRLPRPRPRPTVPPRP | 0.0372
RRIRARPPRLPRPRPRPSRFPRP | 0.125
RRIRPRPPRLPRPRPRPNSCPRP | -0.241
RRIRIRPPRLPRPRPRPYYSPRP | -0.213
RRIRPRPPRLPRPRPRPRVLPRP | -0.0343
RRIRARPPRLPRPRPRPVSSPRP | 0.155
RRIRPRPPRLPRPRPRPRTYPRP | -0.196
RRIRDRPPRLPRPRPRPHDSPRP | -0.00201
RRIRDRPPRLPRPRPRPYGNPRP | -0.117
RRIRCRPPRLPRPRPRPESAPRP | 0.703
RRIRIRPPRLPRPRPRPDRFPRP | 0.0544
RRIRYRPPRLPRPRPRPTQMPRP | -0.213
RRIRSRPPRLPRPRPRPGCMPRP | 0.0917
RRIRVRPPRLPRPRPRPTTMPRP | 0.00526
RRIRRRPPRLPRPRPRPNDLPRP | -0.0791
RRIRHRPPRLPRPRPRPRDIPRP | 0.115
RRIRMRPPRLPRPRPRPNSTPRP | 0.0221
RRIRHRPPRLPRPRPRPIYNPRP | -0.898
RRIRGRPPRLPRPRPRPMVHPRP | -0.0529
RRIRDRPPRLPRPRPRPTTKPRP | 0.0962

Sequence | shrunken log2 fold change
RRIRNRPPRLPRPRPRPQKWPRP | -0.0202
RRIRARPPRLPRPRPRPYIYPRP | -0.346
RRIRSRPPRLPRPRPRPSFTPRP | -0.524
RRIRRRPPRLPRPRPRPPCKPRP | 0.492
RRIRGRPPRLPRPRPRPNLWPRP | 0.671
RRIRSRPPRLPRPRPRPQIQPRP | -0.118
RRIRLRPPRLPRPRPRPSMFPRP | -0.498
RRIRFRPPRLPRPRPRPNPEPRP | -0.197
RRIRLRPPRLPRPRPRPEWQPRP | -0.0018
RRIRIRPPRLPRPRPRPITEPRP | -1.09
RRIRERPPRLPRPRPRPYASPRP | -0.303
RRIRNRPPRLPRPRPRPKCCPRP | -0.0855
RRIRWRPPRLPRPRPRPSHQPRP | -0.0408
RRIRKRPPRLPRPRPRPRIQPRP | 0.475
RRIRRRPPRLPRPRPRPHPHPRP | 0.147
RRIRDRPPRLPRPRPRPLTGPRP | 0.266
RRIRSRPPRLPRPRPRPDESPRP | -0.264
RRIRERPPRLPRPRPRPYKYPRP | 0.686
RRIRMRPPRLPRPRPRPEEPPRP | 0.0975
RRIRDRPPRLPRPRPRPETEPRP | -0.0111
RRIRHRPPRLPRPRPRPHSLPRP | -0.00992
RRIRSRPPRLPRPRPRPLYGPRP | -0.565
RRIRKRPPRLPRPRPRPPWDPRP | 0.68
RRIRWRPPRLPRPRPRPQWKPRP | -0.17
RRIRWRPPRLPRPRPRPMPFPRP | -0.133
